Patent US20140378536A1 (VALTED, published 2014)

Biological target: T1, FLAG-tagged PARIS (full-length PARIS, ZNF746, in pCMV-Tag2A) (human, UniProt Q6NUN9 1-644)
T1 construct: Expressed in SH-SY5Y cells from cDNA IMAGE:30347892; The construct limits it prints (1-644, 322-644) match the 644-residue human entry; also called FLAG-PARIS; pCMV-FLAG-PARIS; not shown: N-terminal FLAG tag of vector pCMV-Tag2A
Assay: co-immunoprecipitation, IP of FLAG-PARIS (FIG. 20)
Description: For co-immunoprecipitation from cell cultures, SH-SY5Y cells were transfected with 2 μg of each plasmid, unless otherwise indicated.

T1 sequence (Q6NUN9 whole entry): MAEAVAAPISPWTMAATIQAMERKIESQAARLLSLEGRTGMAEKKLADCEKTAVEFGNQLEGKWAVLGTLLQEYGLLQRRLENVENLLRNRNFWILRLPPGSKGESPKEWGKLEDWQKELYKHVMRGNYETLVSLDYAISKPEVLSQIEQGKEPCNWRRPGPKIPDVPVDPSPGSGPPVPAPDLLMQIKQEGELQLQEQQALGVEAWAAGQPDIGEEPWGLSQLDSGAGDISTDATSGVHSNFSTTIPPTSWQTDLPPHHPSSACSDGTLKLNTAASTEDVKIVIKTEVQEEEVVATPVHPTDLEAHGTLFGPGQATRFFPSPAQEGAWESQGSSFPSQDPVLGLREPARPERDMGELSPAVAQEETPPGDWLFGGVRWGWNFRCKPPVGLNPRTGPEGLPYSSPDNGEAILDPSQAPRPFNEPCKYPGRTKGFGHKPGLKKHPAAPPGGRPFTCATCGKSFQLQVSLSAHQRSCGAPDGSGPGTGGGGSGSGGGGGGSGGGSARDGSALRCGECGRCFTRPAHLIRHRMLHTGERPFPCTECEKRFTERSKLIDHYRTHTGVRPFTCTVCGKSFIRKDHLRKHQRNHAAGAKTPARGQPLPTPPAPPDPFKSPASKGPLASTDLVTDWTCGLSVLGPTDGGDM

B1: HA-tagged parkin truncation, amino acids 1-198 (UBL-SH) (other, UniProt O60260 1-198, looked up)
chain: MIVFVRFNSSHGFPVEVDSDTSIFQLKEVVAKRQGVPADQLRVIFAGKELRNDWTVQNCDLDQQSIVHIVQRPWRKGQEMNATGGDDPRNAAGGCEREPQSLTRVDLSSSVLPGDSVGLAVILHTDSRKDSPPAGSPAGRSIYNSFYVYCKGPCQRVQPGKLRVQCSTCRQATLTLTQGPSCWDDVLIPNRMSGECQS
notes: range 1-198; also called N-terminal UBL-SH domain; not shown: HA tag of vector pRK5-HA
Does B1 bind?
Result: no binding
